In patent US20260055205A1 (published 2026):

Columns and labels:
[1] = molecular target: T1, human PSMA-Fc (human, UniProt Q04609 44-750); test: Octet
T1 construct: also called Human PSMA-Fc fusion

[2] = molecular target: T2, human PSMA (human, UniProt Q04609 44-750, limits assumed); test: Octet
T2 construct: also called huPSMA; hPSMA

[3] = molecular target: T3, cynomolgus monkey PSMA (cynomolgus monkey, UniProt A0A2K5VNZ0 44-750); test: Octet
T3 construct: also called cyPSMA; cyno PSMA

[4] = molecular target: T1, human PSMA-Fc; test: Octet; remark: listed apart in the source
[5] = molecular target: T4, human CD3 epsilon (human, UniProt P07766 23-126, limits assumed); test: Octet
T4 construct: also called huCD3e

[6] = molecular target: T5, cynomolgus monkey CD3 epsilon (cynomolgus monkey, UniProt Q95LI5 22-117, limits assumed); test: Octet
T5 construct: also called cyCD3e; cyno CD3
T5 sequence (looked up): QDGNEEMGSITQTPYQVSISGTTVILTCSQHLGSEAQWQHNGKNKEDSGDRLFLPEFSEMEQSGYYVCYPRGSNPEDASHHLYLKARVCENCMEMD

[7] = molecular target: T6, cyno PSMA on PSMA-transfected CHO cells (cynomolgus monkey, UniProt A0A2K5VNZ0 1-750); test: cell binding, labeled secondary antibody
T6 construct: whole, on cells; also called Cyno PSMA CHO
Experimental: (§1) Surface binding was detected with a labeled secondary antibody specific for the anti-CD3 scFv.
(§2) The binding affinities to both human and cyno PSMA and human and cyno CD3 epsilon were determined.

[8] = molecular target: T7, human PSMA on PSMA-transfected CHO cells (human, UniProt Q04609 1-750); test: cell binding, labeled secondary antibody
T7 construct: whole, on cells; also called Hu PSMA CHO
Experimental: as §1, §2

[9] = molecular target: T1, human PSMA-Fc; test: Octet, PSMA-Fc
Experimental: Binding affinity of select PSMA PTE variants was tested by Octet.

T1 sequence (Q04609 44-750 limits assumed): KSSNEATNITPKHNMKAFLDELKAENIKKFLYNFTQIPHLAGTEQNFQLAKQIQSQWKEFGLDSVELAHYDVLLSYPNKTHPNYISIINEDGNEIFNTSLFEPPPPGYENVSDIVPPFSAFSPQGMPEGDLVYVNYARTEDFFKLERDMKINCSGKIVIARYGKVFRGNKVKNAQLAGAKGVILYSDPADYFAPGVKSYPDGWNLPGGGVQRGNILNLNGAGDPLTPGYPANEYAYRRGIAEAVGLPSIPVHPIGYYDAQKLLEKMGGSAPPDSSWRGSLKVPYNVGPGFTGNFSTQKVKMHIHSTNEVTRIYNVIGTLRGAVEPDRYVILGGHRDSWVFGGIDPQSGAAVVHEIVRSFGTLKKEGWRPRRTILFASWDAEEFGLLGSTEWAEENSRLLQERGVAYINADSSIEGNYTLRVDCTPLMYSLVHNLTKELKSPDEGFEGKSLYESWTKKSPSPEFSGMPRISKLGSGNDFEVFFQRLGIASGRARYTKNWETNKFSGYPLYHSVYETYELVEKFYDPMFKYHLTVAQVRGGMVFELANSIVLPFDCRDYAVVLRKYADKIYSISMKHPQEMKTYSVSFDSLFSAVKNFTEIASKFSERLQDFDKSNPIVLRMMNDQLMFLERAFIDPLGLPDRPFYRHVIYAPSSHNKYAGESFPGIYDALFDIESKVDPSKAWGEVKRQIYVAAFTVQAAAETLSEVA
T2 sequence (Q04609 44-750 limits assumed): as above
T4 sequence (P07766 23-126 limits assumed): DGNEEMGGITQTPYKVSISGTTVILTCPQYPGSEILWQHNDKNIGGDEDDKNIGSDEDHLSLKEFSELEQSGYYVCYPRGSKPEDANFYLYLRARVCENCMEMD
T7 sequence (Q04609 whole entry): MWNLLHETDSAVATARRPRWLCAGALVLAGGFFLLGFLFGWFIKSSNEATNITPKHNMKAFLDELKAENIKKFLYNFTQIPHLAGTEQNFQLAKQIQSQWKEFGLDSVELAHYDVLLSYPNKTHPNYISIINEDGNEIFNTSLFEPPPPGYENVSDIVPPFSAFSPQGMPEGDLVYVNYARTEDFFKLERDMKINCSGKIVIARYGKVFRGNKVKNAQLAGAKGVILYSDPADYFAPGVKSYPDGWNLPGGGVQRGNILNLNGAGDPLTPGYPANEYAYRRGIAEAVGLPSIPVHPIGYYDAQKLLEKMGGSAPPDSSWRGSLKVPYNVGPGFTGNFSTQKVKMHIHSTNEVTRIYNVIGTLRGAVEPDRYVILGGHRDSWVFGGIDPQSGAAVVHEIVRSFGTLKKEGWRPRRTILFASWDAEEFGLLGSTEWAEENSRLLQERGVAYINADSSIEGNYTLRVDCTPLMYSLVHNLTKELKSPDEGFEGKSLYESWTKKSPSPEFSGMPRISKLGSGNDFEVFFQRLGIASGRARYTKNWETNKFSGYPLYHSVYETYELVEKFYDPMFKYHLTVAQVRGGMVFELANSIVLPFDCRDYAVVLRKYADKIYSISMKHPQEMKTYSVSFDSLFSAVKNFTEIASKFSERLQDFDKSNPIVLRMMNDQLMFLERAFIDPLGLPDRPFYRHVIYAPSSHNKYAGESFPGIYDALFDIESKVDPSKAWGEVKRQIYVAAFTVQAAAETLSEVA

Kd [1]: 3.9 nM
koff [1]: 0.00027 s⁻¹
kon [1]: 72000 M⁻¹ s⁻¹
Kd [2]: 4.5 nM
Kd [3]: 41.1 nM
Kd [4]: 3.9 nM
Kd [5]: 71.9 nM
Kd [6]: 64.6 nM
EC50 [7]: 28.8 nM
EC50 [8]: 9.06 nM
Kd [9]: 3.9 nM
koff [9]: 0.000273 s⁻¹
kon [9]: 72500 M⁻¹ s⁻¹
B1: uTCE of AC3092 (bispecific antibody)
chain: QVQLVESGGGVVQPGRSLRLSCAASGRTFGIYVMGWVRQAPGKEREFVAAISWSGSNRLVSDSVKGRFTISRDNSKNTLYLQMNSLRAEDTAVYYCAASNRLYGRTWYDFNESDYWGQGTQVTVSSGGGGSGGGSELVVTQEPSLTVSPGGTVTLTCRSSNGAVTSSNYANWVQQKPGQAPRGLIGGTNKRAPGTPARFSGSLLGGKAALTLSGVQPEDEAVYYCALWYPNLWVFGGGTKLTVLGATPPETGAETESPGETTGGSAESEPPGEGEVQLLESGGGIVQPGGSLKLSCAASGFTFNTYAMNWVRQAPGKGLEWVARIRSKYNNYATYYADSVKDRFTISRDDSKNTVYLQMNNLKTEDTAVYYCVRHENFGNSYVSWFAHWGQGTLVTVSS
notes: also called AMX-500-P1; PSMA.5-CD3.23
